# Measured values taken from PMC7005942.
# Molecular target: HIV-1 integrase wild type (HIV-1) (UniProt P12497)
# Assay: filter binding
# Conditions: Filter binding: 20 mM Tris-HCl pH 7.5, 200 mM NaCl, 6 mM MgCl2, 1 mM DTT, 0.1 mg/mL BSA, room temperature, 10 min
substance,measurement,value
HIV-1 TAR (1-57),Kd,> 5 µM
